In patent US20100098693A1 (published 2010):
Blank lines part the entries; values can stand above or below the binder they belong to.

Key:
[1] = target: T1, human insulin receptor extracellular domain (HIR ECD), lectin affinity purified from transfected CHO cells (human, UniProt P06213 28-956, limits assumed); test: ELISA, HIR ECD plated; printed as ED50 (second assay, run with the Gln-192 allozyme)
T1 construct: extracellular domain; Secreted ECD purified on a wheat germ agglutinin column
Procedure: (§1) The affinity of the HIRMAb-PON1 fusion protein for the HIR extracellular domain (ECD) was determined with an ELISA using the lectin affinity purified HIR ECD. Chinese hamster ovary (CHO) cells permanently transfected with the HIR ECD were grown in serum free media, and the HIR ECD was purified with a wheat germ agglutinin affinity column. The HIR ECD (0.2 ug/well) was plated on high binding 96-well plates, and the binding of the HIRMAb, or the HIRMAb-PON1 fusion protein to the HIR ECD was detected with a biotinylated goat anti-human IgG (H+L) antibody (0.3 μg/well), and the avidin-biotinylated peroxidase detection system.

[2] = target: T1, human insulin receptor extracellular …; test: ELISA, HIR ECD plated, detection with biotinylated anti-human IgG; printed as ED50 (assay of FIG. 4)
Procedure: as §1

[3] = target: T1, human insulin receptor extracellular …; test: ELISA, HIR ECD plated, detection with biotinylated anti-human IgG; printed as ED50 (assay of FIG. 4, Arg-192 allozyme)
Procedure: as §1

[4] = target: T1, human insulin receptor extracellular …; test: ELISA, HIR ECD plated; printed as ED50 (second assay, Gln-192 allozyme)
Procedure: as §1

EC50 [1]: 0.48 nM | EC50 [2]: 0.55 nM
B1: chimeric HIRMAb (chimeric monoclonal antibody to the human insulin receptor) (antibody, human IgG1, kappa)
heavy: not shown
light: DIQMTQSPSSLSASLGERVSLTCRASQDIGGNLYWLQQGPDGTIKRLIYATSSLDSGVPKRFSGSRSGSDYSLTISSLESEDFVDYYCLQYSSSPWTFGGGTKMEIKRTVAAPSVFIFPPSDEQLKSGTASVVCLLNNFYPREAKVQWKVDNALQSGNSQESVTEQDSKDSTYSLSSTLTLSKADYEKHKVYACEVTHQGLSSPVTKSFNRGEC
notes: Chimeric mouse/human IgG1 kappa; also called engineered HIRMAb

EC50 [3]: 1.1 nM
B2: HIRMAb-PON1 fusion protein, Arg-192 allozyme (PON1 fused to the carboxyl terminus of the HIRMAb heavy chain) (antibody)
heavy: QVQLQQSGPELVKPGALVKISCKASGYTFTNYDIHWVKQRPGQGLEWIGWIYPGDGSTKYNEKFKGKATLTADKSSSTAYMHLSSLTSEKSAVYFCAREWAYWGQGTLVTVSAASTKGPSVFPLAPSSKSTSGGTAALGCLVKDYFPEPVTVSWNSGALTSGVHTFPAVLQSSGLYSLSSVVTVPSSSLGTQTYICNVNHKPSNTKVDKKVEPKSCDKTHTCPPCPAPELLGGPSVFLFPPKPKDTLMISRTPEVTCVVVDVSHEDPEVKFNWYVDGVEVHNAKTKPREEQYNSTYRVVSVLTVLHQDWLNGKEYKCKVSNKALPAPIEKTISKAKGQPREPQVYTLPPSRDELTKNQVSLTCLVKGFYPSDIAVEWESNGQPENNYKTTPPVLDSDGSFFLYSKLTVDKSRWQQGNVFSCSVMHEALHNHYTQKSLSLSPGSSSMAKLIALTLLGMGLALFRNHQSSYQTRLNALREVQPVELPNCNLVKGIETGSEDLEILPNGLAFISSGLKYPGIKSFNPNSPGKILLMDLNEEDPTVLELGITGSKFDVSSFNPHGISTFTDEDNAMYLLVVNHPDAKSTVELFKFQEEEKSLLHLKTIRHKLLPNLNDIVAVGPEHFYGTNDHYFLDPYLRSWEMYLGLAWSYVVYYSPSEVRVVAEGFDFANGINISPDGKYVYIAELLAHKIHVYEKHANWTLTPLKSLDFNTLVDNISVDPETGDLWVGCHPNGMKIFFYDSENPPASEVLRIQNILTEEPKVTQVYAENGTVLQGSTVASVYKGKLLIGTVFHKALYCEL
light: DIQMTQSPSSLSASLGERVSLTCRASQDIGGNLYWLQQGPDGTIKRLIYATSSLDSGVPKRFSGSRSGSDYSLTISSLESEDFVDYYCLQYSSSPWTFGGGTKMEIKRTVAAPSVFIFPPSDEQLKSGTASVVCLLNNFYPREAKVQWKVDNALQSGNSQESVTEQDSKDSTYSLSSTLTLSKADYEKHKVYACEVTHQGLSSPVTKSFNRGEC
notes: IgG-enzyme fusion antibody

EC50 [4]: 0.96 nM
B3: HIRMAb-PON1 fusion protein, Gln-192 allozyme (antibody, human IgG1, kappa)
heavy: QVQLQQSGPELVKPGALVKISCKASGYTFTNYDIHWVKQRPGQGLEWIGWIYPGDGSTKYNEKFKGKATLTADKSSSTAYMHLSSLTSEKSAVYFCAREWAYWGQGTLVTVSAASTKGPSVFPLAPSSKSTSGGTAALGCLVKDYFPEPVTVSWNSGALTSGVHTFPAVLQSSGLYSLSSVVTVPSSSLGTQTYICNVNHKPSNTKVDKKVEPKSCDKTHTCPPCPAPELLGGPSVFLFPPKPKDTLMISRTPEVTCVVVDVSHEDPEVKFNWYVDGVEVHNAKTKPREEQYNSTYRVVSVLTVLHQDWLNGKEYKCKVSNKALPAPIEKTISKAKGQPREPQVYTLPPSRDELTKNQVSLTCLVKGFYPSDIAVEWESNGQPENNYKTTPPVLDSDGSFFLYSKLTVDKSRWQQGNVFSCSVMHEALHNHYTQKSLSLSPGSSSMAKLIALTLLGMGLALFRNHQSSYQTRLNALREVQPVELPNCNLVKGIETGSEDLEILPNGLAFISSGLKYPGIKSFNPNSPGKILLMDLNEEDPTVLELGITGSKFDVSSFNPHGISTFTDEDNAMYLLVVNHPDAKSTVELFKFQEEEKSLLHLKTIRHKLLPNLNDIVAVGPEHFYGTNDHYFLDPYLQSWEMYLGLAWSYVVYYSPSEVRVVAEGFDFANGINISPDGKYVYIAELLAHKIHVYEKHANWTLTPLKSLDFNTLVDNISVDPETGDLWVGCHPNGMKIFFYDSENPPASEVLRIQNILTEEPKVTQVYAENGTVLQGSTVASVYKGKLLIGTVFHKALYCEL
light: DIQMTQSPSSLSASLGERVSLTCRASQDIGGNLYWLQQGPDGTIKRLIYATSSLDSGVPKRFSGSRSGSDYSLTISSLESEDFVDYYCLQYSSSPWTFGGGTKMEIKRTVAAPSVFIFPPSDEQLKSGTASVVCLLNNFYPREAKVQWKVDNALQSGNSQESVTEQDSKDSTYSLSSTLTLSKADYEKHKVYACEVTHQGLSSPVTKSFNRGEC
